For one protein, Km results are on record in article PMC6921899, “AtDAT1 Is a Key Enzyme of D-Amino Acid Stimulated Ethylene Production in Arabidopsis thaliana” (Frontiers in Plant Science, 2019).

Substrate in this series: CSCC[C@@H](N)C(=O)O
Briefly: D-Ala formation by UPLC-MS after derivatization; Hofstee linearization. The series is classed as biochemical, Arabidopsis thaliana. Conditions: pyruvate 50 mM as amino acceptor, standard assay: potassium phosphate 100 mM pH 8, PLP 50 µM, 37 °C.

B1: AtDAT1(Col-0) (Arabidopsis thaliana) (protein)
chain: MAGLSLEFTVNTWNLRSLSQVPCPLRHGFRFPRRLTRRRTILMCSDSSSQSWNVPVLSSYEVGERLKLARGGQQFLAMYSSVVDGITTDPAAMVLPLDDHMVHRGHGVFDTALIINGYLYELDQHLDRILRSASMAKIPLPFDRETIKRILIQTVSVSGCRDGSLRYWLSAGPGDFLLSPSQCLKPTLYAIVIKTNFAINPIGVKVVTSSIPIKPPEFATVKSVNYLPNVLSQMEAEAKGAYAGIWVCKDGFIAEGPNMNVAFVVNGGKELVMPRFDNVLSGCTAKRTLTLAEQLVSKGILKTVKVMDVTVEDGKKADEMMLIGSGIPIRPVIQWDEEFIGEGKEGPIAKALLDLLLEDMRSGPPSVRVLVPY
notes: N-terminal GST tag and C-terminal His tag (pGEX-2TM-GW); E. coli BL21(DE3) RIL; Ni-NTA purified
As usually defined, the Km is the concentration of substrate that gives half-maximal velocity. Take B1: the Km was 17.4 mM.
